Assay results: patent publication US20250092135A1 (NANJING LEADS BIOLABS, published 2025)
Values belong to the binder of their own block, whether it stands above or below them.

How the values were obtained:
[1] = biological target: T1, human MUC16 protein (ECT_TM huMuc16) on 293T cells (human); test: cell binding on 293T/hMUC16 cells, read as MFI (the legend calls it ELISA); EC50 table under the plot, unit from the axis Conc.(nM)
T1 chain: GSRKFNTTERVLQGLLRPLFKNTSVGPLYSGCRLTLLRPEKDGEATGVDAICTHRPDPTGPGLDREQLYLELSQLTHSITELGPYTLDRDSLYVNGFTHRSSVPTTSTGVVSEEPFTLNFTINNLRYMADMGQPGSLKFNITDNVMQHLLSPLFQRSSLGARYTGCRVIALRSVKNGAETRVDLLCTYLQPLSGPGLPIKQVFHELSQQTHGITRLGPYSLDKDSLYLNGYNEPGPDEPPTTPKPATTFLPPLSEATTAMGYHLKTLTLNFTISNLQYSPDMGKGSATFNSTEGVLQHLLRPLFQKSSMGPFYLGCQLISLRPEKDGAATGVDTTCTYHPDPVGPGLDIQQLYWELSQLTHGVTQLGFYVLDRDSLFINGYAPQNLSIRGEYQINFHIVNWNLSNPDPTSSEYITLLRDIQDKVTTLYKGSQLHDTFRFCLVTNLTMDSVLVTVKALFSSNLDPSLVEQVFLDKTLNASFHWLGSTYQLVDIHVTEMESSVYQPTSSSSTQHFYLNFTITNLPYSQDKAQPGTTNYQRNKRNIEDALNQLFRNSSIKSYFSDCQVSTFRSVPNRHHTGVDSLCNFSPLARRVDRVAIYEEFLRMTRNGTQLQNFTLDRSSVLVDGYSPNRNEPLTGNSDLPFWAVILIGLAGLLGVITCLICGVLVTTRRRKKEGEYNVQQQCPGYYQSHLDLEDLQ

[2] = biological target: T2, rhesus monkey MUC16 protein (ECT_TM RhMuc16) on 293T cells (rhesus monkey); test: flow cytometry, 293T/rhesus MUC16 cells, PE anti-human IgG Fc secondary, MFI; EC50 table under the plot, unit from the axis Conc.(nM)
T2 chain: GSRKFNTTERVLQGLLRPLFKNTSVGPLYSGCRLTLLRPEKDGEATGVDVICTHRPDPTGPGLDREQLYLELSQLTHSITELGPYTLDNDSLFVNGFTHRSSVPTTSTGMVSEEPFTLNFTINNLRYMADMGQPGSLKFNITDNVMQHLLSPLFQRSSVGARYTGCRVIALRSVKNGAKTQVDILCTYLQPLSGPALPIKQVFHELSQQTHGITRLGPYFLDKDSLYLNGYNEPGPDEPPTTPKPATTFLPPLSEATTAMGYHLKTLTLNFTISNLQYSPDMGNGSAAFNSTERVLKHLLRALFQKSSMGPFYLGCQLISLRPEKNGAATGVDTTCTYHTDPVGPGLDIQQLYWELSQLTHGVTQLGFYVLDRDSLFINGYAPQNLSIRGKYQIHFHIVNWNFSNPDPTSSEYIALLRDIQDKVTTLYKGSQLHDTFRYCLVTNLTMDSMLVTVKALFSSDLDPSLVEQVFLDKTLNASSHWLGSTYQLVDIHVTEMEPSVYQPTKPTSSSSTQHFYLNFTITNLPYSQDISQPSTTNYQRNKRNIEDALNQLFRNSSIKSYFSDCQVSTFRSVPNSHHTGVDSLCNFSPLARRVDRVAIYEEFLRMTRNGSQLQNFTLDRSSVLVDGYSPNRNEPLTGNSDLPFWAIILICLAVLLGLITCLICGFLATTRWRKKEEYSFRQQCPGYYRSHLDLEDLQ
Description: The serially diluted anti-human MUC16 antibodies (at an initial concentration of 200 nM, 4-fold dilution, 8 points in total) obtained in the present application were added to the cells, and the cells were incubated at 4° C. for 30 min. The cells were washed twice with PBS, and then fluorescent secondary antibody R-PE-conjugated AffiniPure Goat Anti-Human IgG, Fcγ Fragment Specific (Jackson ImmunoResearch, Cat #109-116-098) was added. The cells were incubated at 4° C. for 30 min. The cells were washed twice with PBS and then resuspended, and finally, fluorescence signals were detected using a BD Accuri C5 (BD Bioscience) flow cytometer.

[3] = biological target: T3, human MUC16 protein endogenously expressed on cells (human, UniProt Q8WXI7 1-14507); test: flow cytometry, OVCAR3 cells (endogenous human MUC16), PE anti-human IgG Fc secondary, MFI; EC50 table under the plot, unit from the axis Conc.(nM)
T3 construct: whole, on cells; also called MUC16 on OVCAR3 cells; MUC16 in ovarian carcinoma tissue
Description: (1) Whether the anti-CD3/anti-MUC16 bispecific antibodies in the present invention could bind to the MUC16 protein endogenously expressed on human ovarian carcinoma cells (OVCAR3) (Cell Bank of Type Culture Collection Committee of the Chinese Academy of Sciences, Cat #TCHu228) was determined by cell binding experiments.
The experiments were performed using flow cytometry. OVCAR3 cells were digested, centrifuged and collected. The cells were resuspended in a PBS solution, and seeded into a 96-well plate (Corning, Cat #3799) at 1×10⁵ cells/well. The 96-well plate was centrifuged and then the supernatant was discarded. 100 μL of the serially diluted test bispecific antibody (at a maximum concentration of 200 nM, 5-fold dilution from 100 nM, 9 concentration points in total) was added to the OVCAR3 cells. The plate was incubated at 4° C. for 30 min and centrifuged (1000 rpm, 5 min), and then the supernatant was discarded. 100 μL of PBS solution was added to each well, and the cells were washed twice. 100 μL of fluorescent secondary antibody R-PE-conjugated AffiniPure Goat Anti-Human IgG, Fcγ Fragment Specific (Jackson ImmunoResearch, Cat #109-116-098) diluted in a ratio of 1:200 was then added. The cells were incubated at 4° C. for 30 min. After the cells were washed twice with the PBS solution, 100 μL of PBS solution was added to each well to resuspend the cells, and finally, fluorescence signals were detected using a BD Accuri C5 (BD Bioscience) flow cytometer according to the manufacturer's instructions. REGN4018 was used as a positive control.

[4] = biological target: T2, rhesus monkey MUC16 protein (ECT_TM …); test: flow cytometry, 293T/rhesus MUC16 cells as printed on the sheet and in the legend (the example, paragraph 611, speaks of cynomolgus MUC16), PE anti-human IgG Fc secondary, MFI; EC50 table under the plot, unit from the axis Conc.(nM); curve still rising at the top concentration of 100 nM
Description: Referring to the flow cytometry described above, the serially diluted test bispecific antibody (at an initial concentration of 100 nM, 5-fold dilution, 9 points) was added to the cells, and the plate was incubated at 4° C. for 30 min. The cells were washed twice with PBS, and then fluorescent secondary antibody R-PE-conjugated AffiniPure Goat Anti-Human IgG, Fcγ Fragment Specific was added. The cells were incubated at 4° C. for 30 min. The cells were washed twice with PBS and then resuspended, and finally, fluorescence signals were detected using a BD Accuri C5 (BD Bioscience) flow cytometer.

EC50 [1]: 6.67 nM
EC50 [2]: 5.01 nM
B1: anti-MUC16 antibody 776.1(C33S) (antibody, human IgG1, kappa, L234A L235A, V domains shown)
VH: EVQLQQSGPELVKPGASVKISCKASGYTFTDYNIHWVKQSHGKILEWIGYIYPYNGVSDYNQNFKSKATLIVDNSSNTAYMELRSLTSEDSAVYYCARWDFGSGYYFDYWGQGTTLTVSS
VL: QIVLSQSPAILFASPGETVTMTCRASSSVIYMSWNQQKPGSSPKPWIYGTSTLASGVPTRFSGSGSGTSYSLTISRVEAEDAATYYCQQWSSNPFTFGSGTKLEIKR

EC50 [1]: 2.28 nM
EC50 [3]: 2.73 nM
EC50 [4]: 59.4 nM
B2: humanized anti-MUC16 antibody Hu-L4H7 (antibody, human IgG1, kappa, L234A L235A, V domains shown)
VH: QVQLVQSGAEVKKPGASVKVSCKASGYTFTDYNIHWVRQAPGQGLEWMGYIYPYNGVSDYNQNFKSRVTMTTDTSTSTAYMELRSLRSDDTAVYYCARWDFGSGYYFDYWGQGTLVTVSS
VL: EIVLTQSPATLSLSPGERATLSCRASSSVIYMSWYQQKPGQAPRLLIYGTSTLASGIPARFSGSGSGTDFTLTISSLEPEDFAVYYCQQWSSNPFTFGQGTKLEIKR
notes: human IgG1 with L234A, L235A, D265A, P329A and kappa; Biotinylated in the CA125 ELISA; also called humanized MUC-16 antibody

EC50 [3]: 4.21 nM
EC50 [4]: 52.2 nM
B3: anti-CD3/MUC16 bispecific antibody MCH7-23L2-MCH7 (bispecific antibody, human IgG1, kappa, L234A L235A)
heavy 1: QVQLVQSGAEVKKPGASVKVSCKASGYTFTDYNIHWVRQAPGQGLEWMGYIYPYNGVSDYNQNFKSRVTMTTDTSTSTAYMELRSLRSDDTAVYYCARWDFGSGYYFDYWGQGTLVTVSSASTKGPSVFPLAPSSKSTSGGTAALGCLVKDYFPEPVTVSWNSGALTSGVHTFPAVLQSSGLYSLSSVVTVPSSSLGTQTYICNVNHKPSNTKVDKKVEPKSCEVQLVESGGGLVQPGGSLKLSCAASGFTFSTYAMNWVRQAPGKGLEWVGRIRSKYNNYATYYADSVKDRFTISRDDSKNTLYLQMNSLKTEDTAVYYCTRHGNFGNSYVSWFAYWGQGTTVTVSSGGGGSGGGGSGGGGSQAVVTQEPSLTVSPGGTVTLTCRSSTGAVTTSNYANWVQQKPGQAPRGLIGGTNKRAPGVPARFSGSLLGGKAALTLSGAQPEDEAEYFCALWYSNLWVFGGGTKLTVLGEPKSSDKTHTCPPCPAPEAAGGPSVFLFPPKPKDTLMISRTPEVTCVVVAVSHEDPEVKFNWYVDGVEVHNAKTKPREEQYNSTYRVVSVLTVLHQDWLNGKEYKCKVSNKALAAPIEKTISKAKGQPREPQVCTLPPSRDELTKNQVSLSCAVKGFYPSDIAVEWESNGQPENNYKTTPPVLDSDGSFFLVSKLTVDKSRWQQGNVFSCSVMHEALHNHYTQKSLSLSPGK
heavy 2: not shown
light: EIVLTQSPATLSLSPGERATLSCRASSSVIYMSWYQQKPGQAPRLLIYGTSTLASGIPARFSGSGSGTDFTLTISSLEPEDFAVYYCQQWSSNPFTFGQGTKLEIKRTVAAPSVFIFPPSDEQLKSGTASVVCLLNNFYPREAKVQWKVDNALQSGNSQESVTEQDSKDSTYSLSSTLTLSKADYEKHKVYACEVTHQGLSSPVTKSFNRGEC
notes: MCH7-23L2ScFv-Hole (VH-CH1-scFv-Fc) + MCH7-KIH-Knob + two light chains MCL4 LC
